Results published in article PMC4219657, “Structural and Mechanistic Basis of Zinc Regulation Across the E. coli Zur Regulon” (PLoS Biology, 2014).
Substitutions are numbered along the chain they refer to. Names and notes keep the numbering of the source.

Assays:
Zur WT [1] = molecular target: T1, Zur WT (Escherichia coli, UniProt P0AC51 1-171); experiment: EMSA; 50 uM ZnSO4; macroscopic Kd-app for two dimers; EMSA: 10 mM Tris pH 8.0, 10 mM NaCl, 100 mM K-glutamate, 167 mM KCl, 1.5 mM MgCl2, 1 mM CaCl2, 50 uM ZnSO4, 1 mM DTT, 0.1 ug/ml BSA, 2 ug/ml salmon sperm DNA, DNA <=45 pM, 22 C, 30 min; conditions: protein: recombinant; chain copies: 4; label: 5'-Cy5 on strand 1; blunt
T1 sequence: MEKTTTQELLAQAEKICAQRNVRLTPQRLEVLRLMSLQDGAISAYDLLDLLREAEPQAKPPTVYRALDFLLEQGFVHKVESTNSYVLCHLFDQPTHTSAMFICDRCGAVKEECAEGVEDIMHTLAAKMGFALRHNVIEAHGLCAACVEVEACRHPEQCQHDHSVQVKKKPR

Zur WT [2] = molecular target: T1, Zur WT; experiment: EMSA; 50 uM ZnSO4; Kd1, first dimer; EMSA: 10 mM Tris pH 8.0, 10 mM NaCl, 100 mM K-glutamate, 167 mM KCl, 1.5 mM MgCl2, 1 mM CaCl2, 50 uM ZnSO4, 1 mM DTT, 0.1 ug/ml BSA, 2 ug/ml salmon sperm DNA, DNA <=45 pM, 22 C, 30 min; conditions: protein: recombinant; chain copies: 4; label: 5'-Cy5 on strand 1; blunt
Zur WT [3] = molecular target: T1, Zur WT; experiment: EMSA; 50 uM ZnSO4; macroscopic Kd-app for two dimers; table footnote a not in material; EMSA: 10 mM Tris pH 8.0, 10 mM NaCl, 100 mM K-glutamate, 167 mM KCl, 1.5 mM MgCl2, 1 mM CaCl2, 50 uM ZnSO4, 1 mM DTT, 0.1 ug/ml BSA, 2 ug/ml salmon sperm DNA, DNA <=45 pM, 22 C, 30 min; conditions: protein: recombinant; chain copies: 4; label: 5'-Cy5 on strand 1; blunt
Zur WT [4] = molecular target: T1, Zur WT; experiment: X-ray crystallography; Zn2+ (2 per monomer), 2.50 A; EMSA: 10 mM Tris pH 8.0, 10 mM NaCl, 100 mM K-glutamate, 167 mM KCl, 1.5 mM MgCl2, 1 mM CaCl2, 50 uM ZnSO4, 1 mM DTT, 0.1 ug/ml BSA, 2 ug/ml salmon sperm DNA, DNA <=45 pM, 22 C, 30 min; conditions: protein: recombinant; chain copies: 4; 3' overhang 2 nt on both strands
Zur WT [5] = molecular target: T1, Zur WT; experiment: X-ray crystallography; Zn2+; Br-DNA, 3.5 A; EMSA: 10 mM Tris pH 8.0, 10 mM NaCl, 100 mM K-glutamate, 167 mM KCl, 1.5 mM MgCl2, 1 mM CaCl2, 50 uM ZnSO4, 1 mM DTT, 0.1 ug/ml BSA, 2 ug/ml salmon sperm DNA, DNA <=45 pM, 22 C, 30 min; conditions: protein: recombinant; chain copies: 4; 3' overhang 2 nt on both strands
Zur WT [6] = molecular target: T1, Zur WT; experiment: EMSA; 50 uM ZnSO4; macroscopic Kd-app for two dimers, Hill ~2.1; EMSA: 10 mM Tris pH 8.0, 10 mM NaCl, 100 mM K-glutamate, 167 mM KCl, 1.5 mM MgCl2, 1 mM CaCl2, 50 uM ZnSO4, 1 mM DTT, 0.1 ug/ml BSA, 2 ug/ml salmon sperm DNA, DNA <=45 pM, 22 C, 30 min; conditions: protein: recombinant; chain copies: 4; label: 5'-Cy5 on strand 1; blunt
Zur D49A = molecular target: T2, Zur D49A (Escherichia coli, UniProt P0AC51 1-171, D49A); experiment: EMSA; 50 uM ZnSO4; Kd1, first dimer; EMSA: 10 mM Tris pH 8.0, 10 mM NaCl, 100 mM K-glutamate, 167 mM KCl, 1.5 mM MgCl2, 1 mM CaCl2, 50 uM ZnSO4, 1 mM DTT, 0.1 ug/ml BSA, 2 ug/ml salmon sperm DNA, DNA <=45 pM, 22 C, 30 min; conditions: protein: recombinant; chain copies: 2; label: 5'-Cy5 on strand 1; blunt
T2 sequence: T1 sequence with D49A

Zur R52A = molecular target: T3, Zur R52A (Escherichia coli, UniProt P0AC51 1-171, R52A); experiment: as above; conditions: protein: recombinant; chain copies: 2; label: 5'-Cy5 on strand 1; blunt
T3 sequence: T1 sequence with R52A

[7] = molecular target: the molecule itself; experiment: crystal structure; Zn-loaded Zur with the 31 bp znuABC operator duplex (31mer2bpOH); hanging drop, 1.5 M ammonium sulfate, 0.1 M citrate pH 5.5, 4°C; refined to 2.50 Å
[8] = molecular target: the molecule itself; experiment: SEC; analytical gel filtration of WT Zur, C103S and C88S; elution volume of WT (10.9 ml) as reference; column and buffer not told

B1: PpliG 51 bp (dsDNA)
DNA 1: CCATGAGTACGATGAACTGTTATAATATAACAATCCCTAACGGGAGAAGG
DNA 2: CCTTCTCCCGTTAGGGATTGTTATATTATAACAGTTCATCGTACTCATGG
Kd (Zur WT [1]): 5.2e-16 M^2 | Kd (Zur WT [2]): 28 nM

B2: PzinT 51 bp (dsDNA)
DNA 1: CCCATTTTGCTATATGTTACAATATAACATTACACATCATATACATTAAGG
DNA 2: CCTTAATGTATATGATGTGTAATGTTATATTGTAACATATAGCAAAATGGG
Kd (Zur WT [3]): 5.3e-20 M^2

B3: PL31p 51 bp (dsDNA)
DNA 1: CCATCATTTTTACCTGTTATGTTATAACATAACCATAAAGATACATGCTGG
DNA 2: CCAGCATGTATCTTTATGGTTATGTTATAACATAACAGGTAAAAATGATGG
Kd (Zur WT [3]): 2.5e-20 M^2

B4: 31mer2bpOH (dsDNA)
DNA 1: AGAAGTGTGATATTATAACATTTCATGACTATG
DNA 2: TAGTCATGAAATGTTATAATATCACACTTCTCA
binding result (Zur WT [4]): binds

B5: Br-31mer2bpOH (dsDNA)
DNA 1: B4 DNA 1 with T8U, T22U
DNA 2: B4 DNA 2
modifications: 5-bromo-dU at positions 8 and 22 of strand 1 (dU-Br)
binding result (Zur WT [5]): binds

B6: PznuABC 51 bp (dsDNA)
DNA 1: CCGAATATGAGAAGTGTGATATTATAACATTTCATGACTACTGCAAGACGG
DNA 2: CCGTCTTGCAGTAGTCATGAAATGTTATAATATCACACTTCTCATATTCGG
Kd (Zur WT [6]): 8.2e-18 M^2 | Kd (Zur D49A): 2.1 nM | Kd (Zur R52A): 2.6 nM

B7: E. coli zinc uptake regulator (Zur), wild type (natural protein)
chain: T1 sequence
notes: Zinc uptake regulator Zur of Escherichia coli; the crystal model includes residues 5-152 of each of four chains (A-D); Zinc-loaded (two Zn2+ sites per monomer); no tag is named; also called EcZur; WTZur; source: E. coli BL21 (DE3), pET24d-based plasmid, purified (heparin column)
stoichiometry N [7]: 4

B8: E. coli Zur site B mutant C88S (natural protein)
chain: T1 sequence with C88S
notes: Zinc uptake regulator Zur of Escherichia coli with C88S (zinc site B); also called B-site (C88S) mutant; source: E. coli BL21 (DE3), pET24d-based plasmid, purified (heparin column)
stoichiometry N [8]: 2
